Ends that are not written are not given here. * marks the point of attachment. Hexanoyl = CCCCCC(=O)*

Experiment [1] deals with T1, human VPAC2 receptor (human), P41587.
T1 chain: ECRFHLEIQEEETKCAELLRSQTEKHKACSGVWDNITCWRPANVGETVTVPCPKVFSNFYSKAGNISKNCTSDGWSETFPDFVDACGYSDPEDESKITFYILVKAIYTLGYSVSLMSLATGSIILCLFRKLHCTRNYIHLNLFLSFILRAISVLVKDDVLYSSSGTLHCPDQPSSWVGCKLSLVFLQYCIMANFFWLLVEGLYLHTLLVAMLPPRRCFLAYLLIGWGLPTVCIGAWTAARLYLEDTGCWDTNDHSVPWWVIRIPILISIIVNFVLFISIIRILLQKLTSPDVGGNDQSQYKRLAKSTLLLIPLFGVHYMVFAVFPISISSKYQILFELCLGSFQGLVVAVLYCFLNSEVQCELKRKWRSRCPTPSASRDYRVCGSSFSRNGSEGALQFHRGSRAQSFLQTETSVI
Nature of the experiment: cell-based or functional assay.

The target is the same in experiment [2]. Nature of the experiment: filter binding, VPAC2 membranes, 125I-VIP tracer.
The target in experiment [3] is T2, human VPAC2 receptor (human, UniProt P41587 24-438).
T2 construct: whole, on cells
T2 sequence (looked up): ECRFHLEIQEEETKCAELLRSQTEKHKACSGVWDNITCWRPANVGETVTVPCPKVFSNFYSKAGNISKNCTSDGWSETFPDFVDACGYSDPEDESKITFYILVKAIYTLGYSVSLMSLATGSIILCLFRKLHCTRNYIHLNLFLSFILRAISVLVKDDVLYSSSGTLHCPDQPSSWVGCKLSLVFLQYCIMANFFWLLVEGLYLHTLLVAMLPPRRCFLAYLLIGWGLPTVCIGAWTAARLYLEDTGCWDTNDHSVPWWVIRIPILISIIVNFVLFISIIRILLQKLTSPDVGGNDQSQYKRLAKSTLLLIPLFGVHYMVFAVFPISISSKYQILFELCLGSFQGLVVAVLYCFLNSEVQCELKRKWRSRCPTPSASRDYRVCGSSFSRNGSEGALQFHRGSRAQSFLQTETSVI
Kind of experiment: filter binding, VPAC2 membranes, 125I-VIP tracer.
Experimental: The assay plate is filled with 25 mL assay buffer, 25 mL membranes (2.5 μg) suspended in assay buffer, 25 μL compound (agonist) in assay buffer, and 25 μL tracer (about 40000 cpm) in assay buffer. The filled plate is incubated for 1 hour with shaking.
The transfer from assay plate to filter plate is conducted. The blocking buffer is aspirated by vacuum filtration and washed two times with flush buffer. 90 μL is transferred from the assay plate to the filter plate. The 90 μL transferred from assay plate is aspirated and washed three times with 200 μL flush buffer. The plastic support is removed. It is dried for 1 hour at 60° C. 30 μL Microscint is added. The count is performed.

The target in experiment [4] is T2, human VPAC2 receptor. Nature of the experiment: cell-based or functional assay.
For experiment [5], the target named is T3, human VPAC1 receptor (human), P32241.
T3 chain: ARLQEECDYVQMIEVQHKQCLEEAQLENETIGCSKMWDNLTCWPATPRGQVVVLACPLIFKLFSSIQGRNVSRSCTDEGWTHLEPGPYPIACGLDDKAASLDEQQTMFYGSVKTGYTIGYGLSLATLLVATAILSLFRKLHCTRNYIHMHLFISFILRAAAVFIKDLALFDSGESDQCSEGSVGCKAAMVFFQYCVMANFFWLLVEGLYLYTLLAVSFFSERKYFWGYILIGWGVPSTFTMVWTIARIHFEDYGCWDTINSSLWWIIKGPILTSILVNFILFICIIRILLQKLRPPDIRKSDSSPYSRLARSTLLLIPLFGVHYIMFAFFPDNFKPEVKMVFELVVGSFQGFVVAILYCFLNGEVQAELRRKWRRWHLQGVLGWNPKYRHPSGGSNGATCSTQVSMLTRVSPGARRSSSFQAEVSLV
Kind of experiment: filter binding, VPAC1 membranes, 125I-VIP tracer.

Experiment [6] concerns the target T4, rat VPAC1 receptor (rat), P30083.
T4 chain: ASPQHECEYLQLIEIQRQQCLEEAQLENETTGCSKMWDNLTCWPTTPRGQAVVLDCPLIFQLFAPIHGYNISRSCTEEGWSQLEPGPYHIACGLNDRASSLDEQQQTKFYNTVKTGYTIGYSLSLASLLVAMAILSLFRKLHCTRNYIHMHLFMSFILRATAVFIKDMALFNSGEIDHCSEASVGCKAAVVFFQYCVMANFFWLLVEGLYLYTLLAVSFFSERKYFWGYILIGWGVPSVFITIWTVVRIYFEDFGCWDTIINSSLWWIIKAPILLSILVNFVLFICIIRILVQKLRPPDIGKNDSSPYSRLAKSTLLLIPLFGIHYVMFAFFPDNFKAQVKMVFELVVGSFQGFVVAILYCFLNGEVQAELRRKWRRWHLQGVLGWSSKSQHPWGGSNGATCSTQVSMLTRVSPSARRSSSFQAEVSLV
Kind of experiment: cell-based or functional assay.

Experiment [7] addresses T5, rat VPAC2 receptor (rat), P35000.
T5 chain: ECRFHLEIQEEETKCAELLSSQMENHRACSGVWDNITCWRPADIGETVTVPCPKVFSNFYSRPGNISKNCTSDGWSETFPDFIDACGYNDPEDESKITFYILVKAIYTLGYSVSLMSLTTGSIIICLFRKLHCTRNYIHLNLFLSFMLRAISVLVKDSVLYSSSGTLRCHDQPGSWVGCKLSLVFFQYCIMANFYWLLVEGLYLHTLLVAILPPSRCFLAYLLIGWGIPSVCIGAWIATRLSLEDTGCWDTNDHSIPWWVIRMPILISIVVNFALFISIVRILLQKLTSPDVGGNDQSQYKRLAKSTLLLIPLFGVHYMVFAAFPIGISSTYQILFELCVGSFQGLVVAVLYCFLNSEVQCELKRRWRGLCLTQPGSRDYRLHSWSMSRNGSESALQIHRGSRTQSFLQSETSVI
Kind of experiment: cell-based or functional assay.

B1: P245 (peptide)
peptide: HSDAVFTDNYTRLRKQVAARRYLQSIRNGGPSSGAPPPS
modifications: not checked
As to B1, in experiment [1], the cAMP generation (EC50), Alpha screen came out at 450 nM. Besides, the IC50 in experiment [2] was 921 nM.

B2: P247 (peptide)
peptide: HSDAVFTDNYTRLRRQVAARKYLQSIRNGGPSSGAPPPS
modifications: not checked
On to B2, for which the cAMP generation (EC50), Alpha screen in experiment [1] is 133 nM. Moreover, in experiment [2], the IC50 was determined as 353 nM.

B3: P190 (peptide)
peptide: Hexanoyl-HSDAVFTDNYTRLLAKLALQKYLQSIKNKRYGGPSSGAPPPC(PEG 40 kDa)
notes: T0013 drops Thr 11 (print error); also called PEGylated P164
In the experiment with human VPAC2 receptor [3], B3 returned an IC50 of 4.44 nM. Besides, the “cAMP generation (EC50), Alpha screen” value with human VPAC2 receptor [4] amounted to 2.14 nM.

B4: P137 (peptide)
peptide: HSDAVFTDNYTRLRKQVAAKKYLQSIKNKRYGGPSSGAPPPC
modifications: not checked
In the case of B4, the IC50 in experiment [5] came to 853 nM; in experiment [2], 0.64 nM. Besides, in experiment [1], the cAMP generation (EC50), Alpha screen was 8.31 nM. Besides, the cAMP generation (EC50), DiscoveRx, CHO-PO cells came out at 29.7 nM in experiment [6] and 8 nM in experiment [7].

For the origin of these results see patent publication US20080146500A1, “Selective Vpac2 Receptor Peptide Agonists” (priority 2004, published 2008).
